Test results: article PMC4369446 (2015)

T1: KIAA0935 peptide on HLA-A*02:01 (human)
T1 peptide: RVTDEAGHPV

T2: MRP3 peptide on HLA-A*02:01 (human)
T2 peptide: NVADIGFHDV

T3: ABC transporter MOAT-C peptide on HLA-A*02:01 (human)
T3 peptide: RISDIGLADL

T4: Prostaglandin transporter peptide on HLA-A*02:01 (human)
T4 peptide: LLAGIGTVPI

T5: Endothelin-1 receptor peptide on HLA-A*02:01 (human)
T5 peptide: RVQGIGIPLV

T6: IGHG1 peptide on HLA-A*02:01 (human)
T6 peptide: RLSELAIFGV

T7: Monocarboxylate transporter 8 peptide on HLA-A*02:01 (human)
T7 peptide: AVAFIGLHTS

T8: P47 peptide on HLA-A*02:01 (human)
T8 peptide: RISDIRLFIV

T9: G-protein coupled receptor RE2 peptide on HLA-A*02:01 (human)
T9 peptide: RITDLGLSPH

T10: KIAA0735 peptide on HLA-A*02:01 (human)
T10 peptide: LISGIGIGGA

T11: cMOAT2 peptide on HLA-A*02:01 (human)
T11 peptide: NVADIGLHDV

T12: Hypothetical 20 kD protein peptide on HLA-A*02:01 (human)
T12 peptide: RISAIILHPN

T13: SLC1A1 peptide on HLA-A*02:01 (human)
T13 peptide: VLTGLAIHSI

B1: SIG35α / TRBV27 Cl.413 (TCR)
alpha TRAV12-2 J35 CDR3: CAVSIGFGNVL
beta TRBV27 TRBJ1-4 CDR3: CASSVFGGDMGEKLFF
B2: SIG35α / TRBV27 Cl.1574 (TCR)
alpha TRAV12-2 J35 CDR3: CAVSIGFGNVL
beta TRBV27 TRBJ1-1 CDR3: CASSPWERINTEAFF
B3: SIG35α / TRBV27 Cl.523 (TCR)
alpha TRAV12-2 J35 CDR3: CAVSIGFGNVL
beta TRBV27 TRBJ2-7 CDR3: CASGSYEQYF
B4: SIG35α / TRBV27 Cl.1599 (TCR)
alpha TRAV12-2 J35 CDR3: CAVSIGFGNVL
beta TRBV27 TRBJ1-1 CDR3: CASSFLGAMAEAFF
B5: SIG35α / TRBV27 Cl.1086 (TCR)
alpha TRAV12-2 J35 CDR3: CAVSIGFGNVL
beta TRBV27 TRBJ1-2 CDR3: CASSLHGPGGYTF
B6: SIG35α / TRBV27 Cl.1606 (TCR)
alpha TRAV12-2 J35 CDR3: CAVSIGFGNVL
beta TRBV27 TRBJ2-7 CDR3: CASSLLGSYEQYF
B7: SIG35α / TRBV27 Cl.1593 (TCR)
alpha TRAV12-2 J35 CDR3: CAVSIGFGNVL
beta TRBV27 TRBJ1-5 CDR3: CASGNNQPQHF
B8: SIG35α / TRBV27 Cl.758 (TCR)
alpha TRAV12-2 J35 CDR3: CAVSIGFGNVL
beta TRBV27 TRBJ2-2 CDR3: CASSPRLAGDGELFF
B9: SIG35α / TRBV27 Cl.788 (TCR)
alpha TRAV12-2 J35 CDR3: CAVSIGFGNVL
beta TRBV27 TRBJ2-7 CDR3: CASGPSYEQYF
B10: SIG35α / TRBV27 Cl.794 (TCR)
alpha TRAV12-2 J35 CDR3: CAVSIGFGNVL
beta TRBV27 TRBJ1-2 CDR3: CASSLLGDYGYTF

Target: T1, KIAA0935 peptide on HLA-A*02:01
Test: cytokine release

binding result	Binder
no recognition	B1
no recognition	B2
no recognition	B3
no recognition	B4
no recognition	B5
no recognition	B6
no recognition	B7
no recognition	B8
no recognition	B9
no recognition	B10

Target: T2, MRP3 peptide on HLA-A*02:01
Test: cytokine release

binding result	Binder
no recognition	B1
no recognition	B2
no recognition	B3
no recognition	B4
no recognition	B5
no recognition	B6
no recognition	B7
no recognition	B8
no recognition	B9
no recognition	B10

Target: T3, ABC transporter MOAT-C peptide on …
Test: cytokine release

binding result	Binder
no recognition	B1
no recognition	B2
no recognition	B3
no recognition	B4
no recognition	B5
no recognition	B6
no recognition	B7
no recognition	B8
no recognition	B9
no recognition	B10

Target: T4, Prostaglandin transporter peptide on …
Test: cytokine release

binding result	Binder
recognises	B1
recognises	B2
recognises	B3
recognises	B4
recognises	B5
recognises	B6
recognises	B7
recognises	B8
recognises	B9
recognises	B10

Target: T5, Endothelin-1 receptor peptide on …
Test: cytokine release

binding result	Binder
no recognition	B1
no recognition	B2
no recognition	B3
no recognition	B4
no recognition	B5
no recognition	B6
no recognition	B7
no recognition	B8
no recognition	B9
no recognition	B10

Target: T6, IGHG1 peptide on HLA-A*02:01
Test: cytokine release

binding result	Binder
no recognition	B1
no recognition	B2
no recognition	B3
no recognition	B4
no recognition	B5
no recognition	B6
no recognition	B7
no recognition	B8
no recognition	B9
no recognition	B10

Target: T7, Monocarboxylate transporter 8 peptide …
Test: cytokine release

binding result	Binder
no recognition	B1
no recognition	B2
no recognition	B3
no recognition	B4
no recognition	B5
no recognition	B6
no recognition	B7
no recognition	B8
no recognition	B9
no recognition	B10

Target: T8, P47 peptide on HLA-A*02:01
Test: cytokine release

binding result	Binder
no recognition	B1
no recognition	B2
no recognition	B3
no recognition	B4
no recognition	B5
no recognition	B6
no recognition	B7
no recognition	B8
no recognition	B9
no recognition	B10

Target: T9, G-protein coupled receptor RE2 peptide …
Test: cytokine release

binding result	Binder
no recognition	B1
recognises	B2
recognises	B3
recognises	B4
no recognition	B5
recognises	B6
recognises	B7
recognises	B8
recognises	B9
recognises	B10

Target: T10, KIAA0735 peptide on HLA-A*02:01
Test: cytokine release

binding result	Binder
no recognition	B1
recognises	B2
recognises	B3
recognises	B4
no recognition	B5
recognises	B6
recognises	B7
no recognition	B8
no recognition	B9
recognises	B10

Target: T11, cMOAT2 peptide on HLA-A*02:01
Test: cytokine release

binding result	Binder
no recognition	B1
no recognition	B2
no recognition	B3
no recognition	B4
no recognition	B5
no recognition	B6
no recognition	B7
no recognition	B8
no recognition	B9
no recognition	B10

Target: T12, Hypothetical 20 kD protein peptide on …
Test: cytokine release

binding result	Binder
no recognition	B1
no recognition	B2
no recognition	B3
no recognition	B4
no recognition	B5
no recognition	B6
no recognition	B7
no recognition	B8
no recognition	B9
no recognition	B10

Target: T13, SLC1A1 peptide on HLA-A*02:01
Test: cytokine release

binding result	Binder
no recognition	B1
recognises	B2
no recognition	B3
no recognition	B4
no recognition	B5
recognises	B6
no recognition	B7
no recognition	B8
no recognition	B9
no recognition	B10
